First the molecules themselves.
T1: cynomolgus CD47 (cynomolgus, UniProt A0A5F8AK49 19-323)
T1 chain: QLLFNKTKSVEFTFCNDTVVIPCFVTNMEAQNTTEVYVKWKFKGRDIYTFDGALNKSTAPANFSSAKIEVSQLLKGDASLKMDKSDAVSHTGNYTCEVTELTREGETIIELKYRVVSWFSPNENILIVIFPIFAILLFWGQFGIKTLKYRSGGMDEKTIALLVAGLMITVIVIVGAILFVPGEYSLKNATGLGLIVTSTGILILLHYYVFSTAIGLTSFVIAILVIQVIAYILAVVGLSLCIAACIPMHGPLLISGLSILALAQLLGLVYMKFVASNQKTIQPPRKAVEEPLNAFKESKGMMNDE

B1: B1.188 (antibody, V domains shown)
VH: EVMLVESGGALVKPGGSLKLSCAASGFTFSNYAMSWVRQTPEKRLEWVATISSGGSYTYYPDSVKGRFTISRDNARNTLYLQMSSLRSEDTAMYYCARGYGNFAWFAYWGQGTLVTVSA
VL: DIQMTQSPLSLPVSLGDQASISCRSSQSIVHSTGNTYLEWYLQKPGQSPKLLIYKVSNRFSGVPDRFSGSGSGTDFTLKISRVEAEDLGVYYCFQGSHVPFTFGSGTKLEIK
B2: B1.178 (antibody, V domains shown)
VH: EAQLVESGGALVKPGGSLKLSCSASGFTFSNYAMSWVRQTPEKRLEWVATISSGGTNTYYPGSVKGRFTIARDNAKNTLYLLMSSLRSEDTALYFCARYSNLAWFASWGQGTLVTVSA
VL: B1 VL with I2V, Q3V, S7T, T33N, L51F, Y54S, V90I, F101Y, S105G
B3: B1.99 (antibody, V domains shown)
VH: B1 VH with M3Q, K43R, R76K, R87I, M93L, A97T, Q111H
VL: DVVMTQTPLSLPVSLGDQVSISCRSSQSIVHSYGSTYLEWYLQKPGQSPKLLIYKVSNRFSGVPDRFSGSGSGTDFTLKISRVEAEDLGVYFCFQGSHIPYTFGGGTKLELK
B4: B1.198 (antibody, V domains shown)
VH: EVQLVESGGALVKPGGSLKLSCAASGFTFSNYAMSWVRQTPEKRLEWVATISSGGSYTYYPDSVKGRFTISRDNAKNTLYLQMSSLRSEDTALYYCAKYSNYGRFAYWGQGTLVTVSA
VL: B1 VL with I2V, Q3V, S7T, H31D, T33N, S61F, F101Y, S105G
B5: B1.27 (antibody, V domains shown)
VH: EVKLVESGGGLVKPGGSLKLSCAASGFTFSSYTMSWVRQTPEKRLEWVATVSSGGGNTYYPDSVKGRFTISRDNAKNNLYLQMSSPRSEDTALYYCARYGNYGWFTYWGQGTLVTVSS
VL: B3 VL with V19A, S28N, Y33T, S35N, E39D, Y101R, L111I
B6: B1.39 (antibody, V domains shown)
VH: B5 VH with K3M, P86L, S118A
VL: B1 VL with I2V, Q3L, S7T, V30L, T33N, G69A, V90I, F101R, S105G
B7: B1.30 (antibody, V domains shown)
VH: EVMLVESGGGLVKPGGSLKLSCAASGFTFSSYTMSWVRQTPEKRLEWVATISSGGGNTYYPDSVKGRFTISRDNAKNNLYLQMSSLRSEDTALYYCARYYRYDAWFAYWGQGTLVTVSA
VL: B1 VL with I2V, Q3L, S7T, A85T, F101R, S105G
B8: B1.207 (antibody, V domains shown)
VH: B4 VH with E1G, N77T, S85G, Y107S, A118T
VL: B1 VL with I2V, Q3L, S7T, T33S, K50R, S61F, F67I, K79R, F101Y, S105G
B9: B1.85 (antibody, V domains shown)
VH: B1 VH with M3Q, A33G, M34V, G54S, S63I, K65R, R76K, M93F
VL: B1 VL with S81N, F101Y, S105G
B10: B1.223 (antibody, V domains shown)
VH: B4 VH with Q3K, N77T, S85G, Y99F, Y107S, A118S
VL: B1 VL with T5I, T33S, K50R, S61F, F67I, K79R, F101Y, S105G, I111L
B11: B1.201 (antibody, V domains shown)
VH: B4 VH with V12M, L20F, S30T, Y57N, P61S, N77T, S85G, Y99F, Y102F, Y107S
VL: DVLMTQTPLSLPVSLGDQASISCRFSQSIVHSSGNTYLEWYLQKPGQSPRLLIYKVSNRFFGVPDRISGSGSGTDFTLRISRVEAEDLGVYYCFQGSHVPYTFGGGTKLEIK
B12: 15D3DD/KT14KK/B1.27 (antibody)
chain 1: EVKVVESGGVLVRPGGSLKLSCAASGFTFSRYTMSWVRQTPEKRLEWVATISSGGGNTYYPDSVKGRFTVSRDNAMSSLYLQMSSLRSEDTALYYCARYGAGDAWFAYWGQGTLVTVSS
chain 2: QVQLVQSGAEVKKPGASVKVSCKASGYTFTNYNMHWVRQAPGQRLEWMGTIYPGNDDTSYNQKFKDRVTITADTSASTAYMELSSLRSEDTAVYYCARGGYRAMDYWGQGTLVTVSS
chain 3: B3 VL with V3L, M4L, V19A, S28N, Y33T, S35N, E39D, Y101R, L111I
B13: 15D3DD KT14KK B1.89v1 LC (bispecific antibody)
heavy 1: not shown
heavy 2: not shown
VL: B1 VL with I2V, Q3L, S7T, S28T, T33N, N58K, G96A, V99F, F101R, S105G
B14: 15D3DD/KT14KK/225v1 (antibody)
chain 1: B12 chain 1
chain 2: B12 chain 2
chain 3: B11 VL with L3V, S33N, R50K, I67F, R79K, G96A, V99F, Y101R
B15: 15D3DD/KT14KK/VL6.CDR3mod (antibody)
chain 1: B12 chain 1
chain 2: B12 chain 2
chain 3: DVLMTQTPLSLPVSLGDQASISCRSSQSLVHSNGNTYLEWYLQKPGQSPKLLIYKVSNRFSGVPDRFSGSGSGTDFTLKISRVEAEDLGVYYCFQGSHFPRTFGGGTKLEIKRTVAAPSVFIF
B16: B1.261 (antibody, V domains shown)
VH: QVQLKESGPGLVAPSQSLSITCTVSGFSLTSYGVHWVRQPPGKGLEWLVVIWSDGSTTYNSALKSRLSISKDNSKSQVFLKMNSLQIDDTAMYYCARHGRWLLQRGGAMDYWGQGTSVTVSS
VL: DVVMTQAPKFMSTSVGDRVSVTCRASQNVGSYIAWYQQKLGQSPKALIYSASYRCSGVPDRFTGSGAGTDFTLTIRNVQSEDLAEYFCQQYNSYPLTFGGGTKLEIK
B17: B1.261.huH2(VH3)-huL1 (antibody, V domains shown)
VH: EVQLVESGGGLIQPGGSLRLSCAVSGFSLTSYGVHWVRQPPGKGLEWLVVIWSDGSTTYNSALKSRLTISKDNSKNTVYLQMNSLRAEDTAVYYCARHGRWLLQRGGAMDYWGQGTMVTVSS
VL: DVQMTQSPSSLSASVGDRVTITCRASQNVGSYIAWYQQKPGKSPKALIYSASYRSSGVPSRFSGSGAGTDFTLTISSLQPEDFATYFCQQYNSYPLTFGGGTKLEIK
B18: KT14.5F9hu scFv-B1.261.hu1 (bispecific antibody)
scFv: not shown
heavy: EVQLQESGPGLVKPSETLSLTCTVSGFSLTSYGVHWVRQPPGKGLEWLVVIWSDGSTTYNSALKSRLTISKDNSKNQVSLKLSSVTAADTAVYYCARHGRWLLQRGGAMDYWGQGTMVTVSSASTKGPSVFPLAPSSKSTSGGTAALGCLVKDYFPEPVTVSWNSGALTSGVHTFPAVLQSSGLYSLSSVVTVPSSSLGTQTYICNVNHKPSNTKVDKRVEPKSCDKTHTCPPCPAPELLGGPSVFLFPPKPKDTLMISRTPEVTCVVVDVSHEDPEVKFNWYVDGVEVHNAKTKPREEQYNSTYRVVSVLTVLHQDWLNGKEYKCKVSNKALPAPIEKTISKAKGQPREPQVCTLPPSREEMTKNQVSLSCAVKGFYPSDIAVEWESNGQPENNYKTTPPVLDSDGSFFLVSKLTVDKSRWQQGNVFSCSVMHEALHNHYTQKSLSLSPGK
light: DVQMTQSPSSLSASVGDRVTITCRASQNVGSYIAWYQQKPGKSPKALIYSASYRSSGVPSRFSGSGAGTDFTLTISSLQPEDFATYFCQQYNSYPLTFGGGTKLEIKRTVAAPSVFIFPPSDEQLKSGTASVVCLLNNFYPREAKVQWKVDNALQSGNSQESVTEQDSKDSTYSLSSTLTLSKADYEKHKVYACEVTHQGLSSPVTKSFNRGEC
B19: KT14.B6H12hu scFv-B1.261.hu1 (bispecific antibody)
scFv: not shown
heavy: B18 heavy
light: B18 light
B20: KT14.5F9hu scFv-B1.28.hu13 (bispecific antibody)
scFv: not shown
heavy: EVQLVESGGGLVKPGGSLRLSCAASGFTFGLYTMSWVRQAPGKGLEWVATISSGGSNTYYPDSVKGRFTISRDNAKNSLYLQMNSLRAEDTAVYYCARYYRYDAWFAYWGQGTLVTVSSASTKGPSVFPLAPSSKSTSGGTAALGCLVKDYFPEPVTVSWNSGALTSGVHTFPAVLQSSGLYSLSSVVTVPSSSLGTQTYICNVNHKPSNTKVDKRVEPKSCDKTHTCPPCPAPELLGGPSVFLFPPKPKDTLMISRTPEVTCVVVDVSHEDPEVKFNWYVDGVEVHNAKTKPREEQYNSTYRVVSVLTVLHQDWLNGKEYKCKVSNKALPAPIEKTISKAKGQPREPQVCTLPPSREEMTKNQVSLSCAVKGFYPSDIAVEWESNGQPENNYKTTPPVLDSDGSFFLVSKLTVDKSRWQQGNVFSCSVMHEALHNHYTQKSLSLSPGK
light: EVVLTQSPATLSLSPGERATLSCRSSQNIVHSTGNTYLDWYQQKPGQSPRLLIYKVSNRFSGVPARFSGSGSGTDFTLTISSLEPEDFAVYYCFQGSHIPRTFGGGTKLEIKRTVAAPSVFIFPPSDEQLKSGTASVVCLLNNFYPREAKVQWKVDNALQSGNSQESVTEQDSKDSTYSLSSTLTLSKADYEKHKVYACEVTHQGLSSPVTKSFNRGEC

Among the data in US20230203156A1 (published 2023) are EC50 and Kd values, retold here.

For orientation: EC50 means the concentration giving half of the maximal effect. A word on the Kd: it is a measure of binding affinity in units of concentration.

Residue numbers refer to the chain shown, from its start.

In one test the target is T2, human MDR1 (multidrug resistance protein 1) (UniProt P08183 1-1280). Description: FACS binding, 293T cells expressing human MDR1. In general terms: Flow cytometry measures light scatter and fluorescence of single cells or particles in a stream.
Consider B1, for which the EC50 came to 14.1 nM. For the molecule B2, it took 16.6 nM to reach a half-maximal effect (EC50). Consider B3, for which a half-maximal effect (EC50) was put at 88.2 nM. B4 showed an EC50 of 14.8 nM. In turn, B5 showed an EC50 of 34 nM.

B6 displayed an EC50 of 14.2 nM. The same measure, in the same setting: to B7 belongs 8.5 nM; to B8, 4.3 nM. Same read-out and setting: to B9 belongs 9.2 nM; to B10, 4.6 nM. The same measure, in the same setting: with B11 the figure was 8 nM.

In another test the target is T1, cynomolgus CD47. Description: FACS binding, C6-cKT14 cells.
B12: the EC50 worked out at 36 nM.

With B13, the midpoint of the response, the EC50, lay at 21 nM. Molecule B14 registered an EC50 of 37 nM. B15: a half-maximal effect (EC50) was put at 44 nM.

In the next test the target is T2, human MDR1 (multidrug resistance …). Description: FACS binding, 293T-hB1 cells.
Take B16: the Kd is 188 nM. In the case of B17, the affinity, expressed as Kd, was 50 nM.

In another test the target is T3, human CD47 (human, UniProt Q08722 19-323). Description: cell binding (flow cytometry, C6 cells).
Turning to B18, a half-maximal response (EC50) required 2.7 nM. Consider B19, for which the EC50 worked out at 26 nM. This EC50 lies about 9.6-fold higher than the previous one.

A further test deals with T3, human CD47. Description: FACS binding, C6 cells expressing human CD47.
On to B20, for which the EC50 stood at 1.4 nM.

A further test deals with cynomolgus MDR1 (Macaca fascicularis). Description: FACS binding, 293T-cB1 cells.
Chain of cynomolgus MDR1 (Macaca fascicularis) (chain, as listed by the source): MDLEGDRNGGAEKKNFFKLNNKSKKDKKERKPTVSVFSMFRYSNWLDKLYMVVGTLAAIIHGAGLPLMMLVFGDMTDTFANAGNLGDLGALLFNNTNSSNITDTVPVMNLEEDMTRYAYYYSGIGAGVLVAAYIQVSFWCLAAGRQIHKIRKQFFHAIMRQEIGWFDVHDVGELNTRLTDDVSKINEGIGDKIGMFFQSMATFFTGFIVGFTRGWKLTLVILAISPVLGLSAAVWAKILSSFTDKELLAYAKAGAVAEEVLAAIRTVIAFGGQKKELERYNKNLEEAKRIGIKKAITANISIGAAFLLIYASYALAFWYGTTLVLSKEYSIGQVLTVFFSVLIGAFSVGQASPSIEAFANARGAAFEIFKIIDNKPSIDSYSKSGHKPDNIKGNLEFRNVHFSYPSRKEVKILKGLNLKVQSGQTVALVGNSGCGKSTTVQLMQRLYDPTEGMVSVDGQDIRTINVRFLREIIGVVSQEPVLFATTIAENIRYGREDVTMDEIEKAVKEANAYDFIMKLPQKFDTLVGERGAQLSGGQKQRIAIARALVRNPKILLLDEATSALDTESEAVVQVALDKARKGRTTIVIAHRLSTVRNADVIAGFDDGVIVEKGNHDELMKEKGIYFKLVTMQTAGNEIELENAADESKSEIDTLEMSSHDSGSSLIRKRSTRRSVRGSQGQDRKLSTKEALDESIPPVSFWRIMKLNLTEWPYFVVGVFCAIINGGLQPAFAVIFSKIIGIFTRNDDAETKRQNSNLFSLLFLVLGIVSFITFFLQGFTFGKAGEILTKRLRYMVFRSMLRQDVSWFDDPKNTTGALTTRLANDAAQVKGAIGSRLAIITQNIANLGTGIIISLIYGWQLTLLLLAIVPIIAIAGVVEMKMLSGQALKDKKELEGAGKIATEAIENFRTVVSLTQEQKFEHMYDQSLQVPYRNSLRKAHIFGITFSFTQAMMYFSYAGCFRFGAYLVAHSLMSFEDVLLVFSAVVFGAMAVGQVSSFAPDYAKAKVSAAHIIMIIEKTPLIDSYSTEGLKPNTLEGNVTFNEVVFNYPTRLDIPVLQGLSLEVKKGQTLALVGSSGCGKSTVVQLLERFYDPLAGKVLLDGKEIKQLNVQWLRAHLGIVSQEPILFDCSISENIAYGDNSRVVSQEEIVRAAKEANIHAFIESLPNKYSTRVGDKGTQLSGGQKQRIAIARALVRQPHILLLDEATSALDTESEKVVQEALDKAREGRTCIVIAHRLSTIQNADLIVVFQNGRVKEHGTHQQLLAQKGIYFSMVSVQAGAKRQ
Molecule B16 gave a Kd of 371 nM. The molecule B17 yielded a Kd of 114 nM.
